From article PMC6588349, “Conformational dynamics between transmembrane domains and allosteric modulation of a metabotropic glutamate receptor” (eLife, 2019) come the findings set out here.

The term stoichiometry N denotes a count of units in the complex or per binding partner.

The series deals with the molecule itself. Briefly: single-molecule pulldown (SiMPull) with subunit counting by photobleaching steps; surface receptors labelled with BG-LD555 on HEK 293T cells, lysed in 1.2% IGEPAL, diluted in 0.1% IGEPAL, immobilised by biotinylated anti-HA antibody on a PEG-passivated coverslip, TIRF imaging; SNAP labelling efficiency ~80%; background two-step bleaching ~5-10%.

B1: SNAP-mGluR1-TMD (domain or fragment, rat, UniProt P23385 583-1199, looked up)
chain: VRYLEWSDIESIIAIAFSCLGILVTLFVTLIFVLYRDTPVVKSSSRELCYIILAGIFLGYVCPFTLIAKPTTTSCYLQRLLVGLSSAMCYSALVTKTNRIARILAGSKKKICTRKPRFMSAWAQVIIASILISVQLTLVVTLIIMEPPMPILSYPSIKEVYLICNTSNLGVVAPVGYNGLLIMSCTYYAFKTRNVPANFNEAKYIAFTMYTTCIIWLAFVPIYFGSNYKIITTCFAVSLSVTVALGCMFTPKMYIIIAKPERNVRSAFTTSDVVRMHVGDGKLPCRSNTFLNIFRRKKPGAGNANSNGKSVSWSEPGGRQAPKGQHVWQRLSVHVKTNETACNQTAVIKPLTKSYQGSGKSLTFSDASTKTLYNVEEEDNTPSAHFSPPSSPSMVVHRRGPPVATTPPLPPHLTAEETPLFLADSVIPKGLPPPLPQQQPQQPPPQQPPQQPKSLMDQLQGVVTNFGSGIPDFHAVLAGPGTPGNSLRSLYPPPPPPQHLQMLPLHLSTFQEESISPPGEDIDDDSERFKLLQEFVYEREGNTEEDELEEEEDLPTASKLTPEDSPALTPPSPFRDSVASGSSVPSSPVSESVLCTPPNVTYASVILRDYKQSSSTL
modifications: SNAP tag labelled with BG-LD555
notes: LBD and CRD deleted; following the SNAP tag the receptor starts at V583; Made by modifying the full-length SNAP-tagged cDNA of Doumazane et al., 2011; source: HEK 293T, transfected, surface-labelled, in detergent lysate; not shown: HA, N-terminal, kept; SNAP, N-terminal, kept
For the protein B1, the “percent of spots bleaching in two steps” value is approximately 30% and the “stoichiometry N” value worked out at 2.

B2: SNAP-mGluR2-TMD (HA-SNAP-tagged isolated transmembrane domain of mGluR2) (domain or fragment, rat, UniProt P31421 558-872, looked up)
chain: QEYIRWGDAWAVGPVTIACLGALATLFVLGVFVRHNATPVVKASGRELCYILLGGVFLCYCMTFVFIAKPSTAVCTLRRLGLGTAFSVCYSALLTKTNRIARIFGGAREGAQRPRFISPASQVAICLALISGQLLIVAAWLVVEAPGTGKETAPERREVVTLRCNHRDASMLGSLAYNVLLIALCTLYAFKTRKCPENFNEAKFIGFTMYTTCIIWLAFLPIFYVTSSDYRVQTTTMCVSVSLSGSVVLGCLFAPKLHIILFQPQKNVVSHRAPTSRFGSAAPRASANLGQGSGSQFVPTVCNGREVVDSTTSSL
modifications: SNAP tag labelled with BG-LD555 (SiMPull); with BG-LD655 as acceptor or with a mixture of BG-LD555 and BG-LD655 (FRET)
notes: mGluR2, rat; LBD and CRD deleted; following the SNAP tag the receptor starts at Q558; Made by modifying the full-length SNAP-tagged cDNA of Doumazane et al., 2011; also called HA-SNAP-mGluR2-TMD; isolated mGluR2 TMD; source: HEK 293T, transfected; surface-labelled, in detergent lysate (SiMPull); on living cells (FRET); not shown: HA, N-terminal, kept; SNAP, N-terminal, kept
Regarding B2, the “percent of spots bleaching in two steps” value was approximately 45% and the “stoichiometry N” value was found to be 2.

B3: SNAP-mGluR3-TMD (domain or fragment, rat, UniProt P31422 567-879, looked up)
chain: EDYIKWEDAWAIGPVTIACLGFLCTCIVITVFIKHNNTPLVKASGRELCYILLFGVSLSYCMTFFFIAKPSPVICALRRLGLGTSFAICYSALLTKTNCIARIFDGVKNGAQRPKFISPSSQVFICLGLILVQIVMVSVWLILETPGTRRYTLPEKRETVILKCNVKDSSMLISLTYDVVLVILCTVYAFKTRKCPENFNEAKFIGFTMYTTCIIWLAFLPIFYVTSSDYRVQTTTMCISVSLSGFVVLGCLFAPKVHIVLFQPQKNVVTHRLHLNRFSVSGTATTYSQSSASTYVPTVCNGREVLDSTTSSL
modifications: SNAP tag labelled with BG-LD555
notes: mGluR3, rat; LBD and CRD deleted; following the SNAP tag the receptor starts at E567; Made by modifying the full-length SNAP-tagged cDNA of Doumazane et al., 2011; source: HEK 293T, transfected, surface-labelled, in detergent lysate; not shown: HA, N-terminal, kept; SNAP, N-terminal, kept
As to B3, the “percent of spots bleaching in two steps” value is approximately 30% and the “stoichiometry N” value was found to be 2.

B4: SNAP-mGluR5-TMD (domain or fragment, human, UniProt P41594 570-1212, looked up)
chain: VQYLRWGDPEPIAAVVFACLGLLATLFVTVVFIIYRDTPVVKSSSRELCYIILAGICLGYLCTFCLIAKPKQIYCYLQRIGIGLSPAMSYSALVTKTNRIARILAGSKKKICTKKPRFMSACAQLVIAFILICIQLGIIVALFIMEPPDIMHDYPSIREVYLICNTTNLGVVTPLGYNGLLILSCTFYAFKTRNVPANFNEAKYIAFTMYTTCIIWLAFVPIYFGSNYKIITMCFSVSLSATVALGCMFVPKVYIILAKPERNVRSAFTTSTVVRMHVGDGKSSSAASRSSSLVNLWKRRGSSGETLRYKDRRLAQHKSEIECFTPKGSMGNGGRATMSSSNGKSVTWAQNEKSSRGQHLWQRLSIHINKKENPNQTAVIKPFPKSTESRGLGAGAGAGGSAGGVGATGGAGCAGAGPGGPESPDAGPKALYDVAEAEEHFPAPARPRSPSPISTLSHRAGSASRTDDDVPSLHSEPVARSSSSQGSLMEQISSVVTRFTANISELNSMMLSTAAPSPGVGAPLCSSYLIPKEIQLPTTMTTFAEIQPLPAIEVTGGAQPAAGAQAAGDAARESPAAGPEAAAAKPDLEELVALTPPSPFRDSVDSGSTTPNSPVSESALCIPSSPKYDTLIIRDYTQSSSSL
modifications: SNAP tag labelled with BG-LD555 (SiMPull); with donor and acceptor fluorophores (FRET)
notes: mGluR5, human; LBD and CRD deleted; following the SNAP tag the receptor starts at V570; Made by modifying the full-length SNAP-tagged cDNA of Doumazane et al., 2011; source: HEK 293T, transfected; surface-labelled, in detergent lysate (SiMPull); on living cells (FRET); not shown: HA, N-terminal, kept; SNAP, N-terminal, kept
For the protein B4, the “percent of spots bleaching in two steps” value is approximately 30% and the “stoichiometry N” value was 2.

B5: SNAP-tagged full-length mGluR2 (HA-SNAP-mGluR2) (receptor, rat, UniProt P31421 19-872, looked up)
chain: EGPAKKVLTLEGDLVLGGLFPVHQKGGPAEECGPVNEHRGIQRLEAMLFALDRINRDPHLLPGVRLGAHILDSCSKDTHALEQALDFVRASLSRGADGSRHICPDGSYATHSDAPTAVTGVIGGSYSDVSIQVANLLRLFQIPQISYASTSAKLSDKSRYDYFARTVPPDFFQAKAMAEILRFFNWTYVSTVASEGDYGETGIEAFELEARARNICVATSEKVGRAMSRAAFEGVVRALLQKPSARVAVLFTRSEDARELLAATQRLNASFTWVASDGWGALESVVAGSERAAEGAITIELASYPISDFASYFQSLDPWNNSRNPWFREFWEERFHCSFRQRDCAAHSLRAVPFEQESKIMFVVNAVYAMAHALHNMHRALCPNTTHLCDAMRPVNGRRLYKDFVLNVKFDAPFRPADTDDEVRFDRFGDGIGRYNIFTYLRAGSGRYRYQKVGYWAEGLTLDTSFIPWASPSAGPLPASRCSEPCLQNEVKSVQPGEVCCWLCIPCQPYEYRLDEFTCADCGLGYWPNASLTGCFELPQEYIRWGDAWAVGPVTIACLGALATLFVLGVFVRHNATPVVKASGRELCYILLGGVFLCYCMTFVFIAKPSTAVCTLRRLGLGTAFSVCYSALLTKTNRIARIFGGAREGAQRPRFISPASQVAICLALISGQLLIVAAWLVVEAPGTGKETAPERREVVTLRCNHRDASMLGSLAYNVLLIALCTLYAFKTRKCPENFNEAKFIGFTMYTTCIIWLAFLPIFYVTSSDYRVQTTTMCVSVSLSGSVVLGCLFAPKLHIILFQPQKNVVSHRAPTSRFGSAAPRASANLGQGSGSQFVPTVCNGREVVDSTTSSL
modifications: SNAP tag labelled with BG-LD555 (SiMPull); SNAP tag labelled with donor and acceptor fluorophores (inter-LBD FRET)
notes: metabotropic glutamate receptor 2 (mGluR2), rat, full-length, behind N-terminal HA and SNAP tags; construct of Doumazane et al., 2011; also called mGluR2-WT; WT-SNAP-mGluR2; source: HEK 293T, transfected; surface-labelled, in detergent lysate (SiMPull); on living cells (FRET); not shown: HA, N-terminal, kept; SNAP, N-terminal, kept
On to B5, for which the “percent of spots bleaching in two steps” value is approximately 60% and the “stoichiometry N” value turned out to be 2.
